# Data as given in patent USRE48267E1, “Variants of C-type natriuretic peptide” (priority 2009, dated 2020).
# Where no end group is shown, it is not given here. [ ]: non-standard residue; d: D form. tBuAla = CC(C)(C)C[C@H](N)C(=O)O; Cit = NC(=O)NCCC[C@H](N)C(=O)O
# Target: T1, NPR-B (natriuretic peptide receptor B), murine, expressed endogenously on NIH3T3 cells (murine, UniProt Q6VVW5 17-1047)
# T1 sequence (looked up): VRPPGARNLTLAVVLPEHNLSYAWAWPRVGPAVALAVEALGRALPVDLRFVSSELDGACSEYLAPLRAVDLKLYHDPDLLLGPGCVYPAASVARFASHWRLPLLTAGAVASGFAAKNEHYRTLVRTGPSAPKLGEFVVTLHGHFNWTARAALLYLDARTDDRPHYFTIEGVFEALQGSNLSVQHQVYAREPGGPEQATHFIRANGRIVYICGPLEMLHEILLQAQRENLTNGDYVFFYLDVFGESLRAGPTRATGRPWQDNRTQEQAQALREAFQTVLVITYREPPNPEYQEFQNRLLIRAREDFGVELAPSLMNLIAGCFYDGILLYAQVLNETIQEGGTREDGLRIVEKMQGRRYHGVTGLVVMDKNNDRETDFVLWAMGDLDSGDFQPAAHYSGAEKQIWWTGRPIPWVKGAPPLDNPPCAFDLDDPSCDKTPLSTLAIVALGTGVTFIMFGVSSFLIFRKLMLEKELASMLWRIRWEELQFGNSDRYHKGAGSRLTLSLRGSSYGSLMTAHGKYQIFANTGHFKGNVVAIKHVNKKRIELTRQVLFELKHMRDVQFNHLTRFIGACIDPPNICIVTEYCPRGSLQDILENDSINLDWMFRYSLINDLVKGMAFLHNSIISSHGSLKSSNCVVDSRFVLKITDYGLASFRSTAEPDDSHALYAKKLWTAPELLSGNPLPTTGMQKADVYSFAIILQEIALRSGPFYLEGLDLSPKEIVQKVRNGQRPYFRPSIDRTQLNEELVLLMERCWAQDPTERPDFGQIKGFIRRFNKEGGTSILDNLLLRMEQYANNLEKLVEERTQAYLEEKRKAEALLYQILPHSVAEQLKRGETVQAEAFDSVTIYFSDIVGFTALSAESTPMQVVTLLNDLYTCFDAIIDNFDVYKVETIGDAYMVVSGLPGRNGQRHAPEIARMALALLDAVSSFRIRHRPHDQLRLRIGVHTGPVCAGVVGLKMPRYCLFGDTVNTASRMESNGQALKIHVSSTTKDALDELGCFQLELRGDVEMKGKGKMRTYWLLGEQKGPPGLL
# Test: cell-based or functional assay
Binder,"cGMP response rel. to 1 uM CNP22; 10 nM peptide, NIH3T3 cells","cGMP response rel. to 1 uM CNP22; 1 uM peptide, NIH3T3 cells"
"GLSRGCFGLKLDRIGSMSGRGC [CNP22, K4R, L20R]",11 rel. to 1 uM CNP22 (100),8 rel. to 1 uM CNP22 (100)
"GLSRGCFGLKLDRIRSMSGLGC [CNP22, K4R, G15R]",0.3 rel. to 1 uM CNP22 (100),0.3 rel. to 1 uM CNP22 (100)
"GLSRGCFGLKLDRINSMSGLGC [CNP22, K4R, G15N]",4 rel. to 1 uM CNP22 (100),41 rel. to 1 uM CNP22 (100)
"GLSRGCFGLKLDRIGSMSRLGC [CNP22, K4R, G19R]",22 rel. to 1 uM CNP22 (100),84 rel. to 1 uM CNP22 (100)
"GLSRGCFGTKLDRIGSMSGLGC [CNP22, K4R, L9T]",4 rel. to 1 uM CNP22 (100),68 rel. to 1 uM CNP22 (100)
"GLSRGCFGLKLDRIGSMSSLGC [CNP22, K4R, G19S]",21 rel. to 1 uM CNP22 (100),63 rel. to 1 uM CNP22 (100)
"GLSRGCFGLKLDRIGSMSGLRC [CNP22, K4R, G21R]",20 rel. to 1 uM CNP22 (100),21 rel. to 1 uM CNP22 (100)
"GLSRGCFGLKLDRIGSMSGLGC [CNP22, K4R]",59 rel. to 1 uM CNP22 (100),121 rel. to 1 uM CNP22 (100)
"GLSRGCFTLKLDRIGSMSGLGC [CNP22, K4R, G8T]",11 rel. to 1 uM CNP22 (100),66 rel. to 1 uM CNP22 (100)
"GLSRGCFGLKLDRI[Cit]SMSGLGC (ends and bridges not checked) [CNP22, K4R, G15Cit]",1.4 rel. to 1 uM CNP22 (100),2 rel. to 1 uM CNP22 (100)
"GLSRGCFVLKLDRIGSMSGLGC [CNP22, K4R, G8V]",3 rel. to 1 uM CNP22 (100),25 rel. to 1 uM CNP22 (100)
"GLSRGCFGLKLDRIGSNSGLGC [CNP22, K4R, M17N]",40 rel. to 1 uM CNP22 (100),103 rel. to 1 uM CNP22 (100)
"GLSRGCFGLQLDRIGSMSGLGC [CNP22, K4R, K10Q]",9 rel. to 1 uM CNP22 (100),45 rel. to 1 uM CNP22 (100)
"GLSRGCFGLKLDRIGQMSGLGC [CNP22, K4R, S16Q]",42 rel. to 1 uM CNP22 (100),116 rel. to 1 uM CNP22 (100)
"GLSRGCFSLKLDRIGSMSGLGC [CNP22, K4R, G8S]",26 rel. to 1 uM CNP22 (100),86 rel. to 1 uM CNP22 (100)
"GLSRGCFGL[Cit]LDRIGSMSGLGC (ends and bridges not checked) [CNP22, K4R, K10Cit]",6 rel. to 1 uM CNP22 (100),33 rel. to 1 uM CNP22 (100)
"ELSEGCFGLKLDRIGSMSGLGC [CNP22, G1E, K4E]",11 rel. to 1 uM CNP22 (100),54 rel. to 1 uM CNP22 (100)
"GLSRGCFGLSLDRIGSMSGLGC [CNP22, K4R, K10S]",16 rel. to 1 uM CNP22 (100),53 rel. to 1 uM CNP22 (100)
"GLSRGCFGLKLDRIGSVSGLGC [CNP22, K4R, M17V]",10 rel. to 1 uM CNP22 (100),65 rel. to 1 uM CNP22 (100)
"GLSRGCFGLKLDRIGSMSGVGC [CNP22, K4R, L20V]",0.2 rel. to 1 uM CNP22 (100),8 rel. to 1 uM CNP22 (100)
"GLSRGCFGLKLDRISSMSGLGC [CNP22, K4R, G15S]",13 rel. to 1 uM CNP22 (100),71 rel. to 1 uM CNP22 (100)
"GLSRSCFGLKLDRIGSMSGLGC [CNP22, K4R, G5S]",45 rel. to 1 uM CNP22 (100),–
"GLSRGCFGLKLDRIGSMSG[tBuAla]GC (ends and bridges not checked) [CNP22, K4R, L20t-butyl-Ala]",1 rel. to 1 uM CNP22 (100),21 rel. to 1 uM CNP22 (100)
"GLSRGCFGLRLDRIGSMSGLGC [CNP22, K4R, K10R]",12 rel. to 1 uM CNP22 (100),80 rel. to 1 uM CNP22 (100)
"GLSRGCFGLKLDRIGSMSGLTC [CNP22, K4R, G21T]",6 rel. to 1 uM CNP22 (100),21 rel. to 1 uM CNP22 (100)
"GLSRRCFGLKLDRIGSMSGLGC [CNP22, K4R, G5R]",18 rel. to 1 uM CNP22 (100),80 rel. to 1 uM CNP22 (100)
"GLSRGCYGLKLDRIGSMSGLGC (ends and bridges not checked; cysteine pairing not given here) [CNP22, K4R, F7Y]",2 rel. to 1 uM CNP22 (100),18 rel. to 1 uM CNP22 (100)
"GLSRGCFGLKLDRIGSMSGLSC [CNP22, K4R, G21S]",7 rel. to 1 uM CNP22 (100),39 rel. to 1 uM CNP22 (100)

# Target: T1, NPR-B (natriuretic peptide receptor B), …
# Test: cell-based or functional assay
# Remark: another data set of the same source
Binder,"cGMP response rel. to 1 uM CNP22; 10 nM peptide, NIH3T3 cells","cGMP response rel. to 1 uM CNP22; 1 uM peptide, NIH3T3 cells"
CNP53 (peptide) peptide: DLRVDTKSRAAWARLLQEHPNARKYKGANKKGLSKGCFGLKLDRIGSMSGLGC,61 rel. to 1 uM CNP22 (100),101 rel. to 1 uM CNP22 (100)

# Target: T1, NPR-B (natriuretic peptide receptor B), …
# Test: cell-based or functional assay
# Remark: another data set of the same source
Binder,"cGMP response rel. to 1 uM CNP22; 10 nM peptide, NIH3T3 cells","cGMP response rel. to 1 uM CNP22; 1 uM peptide, NIH3T3 cells"
{PEG 2 kDa}-GLSKGCFGLKLDRIGSMSGLGC (ends and bridges not checked) [PEG2K-CNP22],6 rel. to 1 uM CNP22 (100),32 rel. to 1 uM CNP22 (100)
{PEG 20 kDa}-GLSKGCFGLKLDRIGSMSGLGC (ends and bridges not checked) [PEG20K-CNP22],0 rel. to 1 uM CNP22 (100),15 rel. to 1 uM CNP22 (100)
{PEG 5 kDa}-GLSKGCFGLKLDRIGSMSGLGC (ends and bridges not checked; also: PEG polydispersed) [PEG5K-CNP22],8 rel. to 1 uM CNP22 (100),20 rel. to 1 uM CNP22 (100)
